{"source": "the DeepSol protein solubility set"}
{"assay": "soluble on expression in E. coli; label from the status in PepcDB or PDB records"}
{"sequence": "MDKTVFQQDLAPYVKYSLNKKKRWETGNDKNYLSEVQKRYRGMDMFVIDRVRLNSSPYFCFISRENFFHNYFLQFPIRQLHQLNADNSYSYVYANQTYGQSYKSLQPENRSPSKSKSAKKPELYQNAKVAYHIITPPKNYEKLQAPKFCPGSSDRNLTHRTLTHWRRVKRMRDALLSLRYEKFEVLDEEVDMVDDYLIFDQYDPPRKLLV", "soluble on expression in E. coli": "not soluble"}
{"sequence": "MDLFDLIFPPPPQSPSKLHPTQNHILPPEPLNRDFGDTRKNHKKAQPRRTTKAPSTSSPTIHDRQTPPRPTTPKSPTEKLLPIYHKFADGTEVVNPAAYAQRGFGWVKQNNTARVSWAKWAQSTKKCDDDIYGLKWIEERYPNWRDSNFRIRERRRSRSRSPQLSDNGSEDISIYLGRANSSSPNPTATGSETSYGSPTDAIYIPRNY", "soluble on expression in E. coli": "not soluble"}
{"sequence": "MDLFKIEANYIDIFNKEIYPASIAIANGHIASIEKINATLDEYVLPGFIDAHIHIESSFLVPSNFAHLVVAHGTVATISDPHEIANVNGIDGINFMINNSKKTEFKFFFGAPSCVPALSQEFETSGYVLNDKDIDELMKLDDIYYLAEVMDFKGVINKDIEIINKINSALKRNKVVDGHAPGLSPNLTLKYASSGISTDHECLTIEDARYKLSLGMKILIREGSAAKNFESLHPLISECSKKYCDSLMFCFDDAHPNDILNGHINLIVARAIKHGHDFFDVLKIACINPVLHYKIPVGLLRIGDPADFIITKDIKTFKINKTYINGKLVFNDGISLIPLINEIPINNFNCSKKSISDFKFSTKNKMIPVIKCISNQIITHKTMIDSNLLAPDFQSNIAEDILKIAIINRYKDNSKISIGFIKNFGIRNGAIGSTVAHDSHNIILVGSNDEYLCKAANTIIQNKGGLCALNNEKTIIMELPISGLMSTLSAERVASQYIKLNDFCKNVLGSRLDDPLMTLSFMSLTVVPHLKINDKGLFDVDSFCFVDYLEHHHHHH", "soluble on expression in E. coli": "not soluble"}
{"sequence": "MDLFPDEVYVFTPKGHIMELPKGATPVDFAYTVHSGVGNSCVAAKVNRRLVPLSIPLSNGQTVEIITAPGAHPNPAWLEHHHHHH", "soluble on expression in E. coli": "not soluble"}
{"sequence": "MDLFQAMRVYVKVVEAGSLTAAAQACSISTTMVGNHLRALEQRLGVSLLQRTTRRQRLTEFGTAYYERCLEVLGLVAESEQLAEQAQGDPSGTLRITAPLTFGSEVLAPALAGFSLRFPEVKLDLVLTNQRLDMIDNGFDIAIRLGNIPQSSPLIARLMQDYTLTICAAPSYLARHGTPAHPEDLGAHNCLAFSYPAGDEWRTAGTQWRMTGPEGEVLVDVDGSMVANTSAGLYQAACAGMGVVMLPDALVQRDLQEGRLVALLPGYHLPRRPMNLLYVQDRYRLPKVRSFVEYAMGLWGR", "soluble on expression in E. coli": "not soluble"}
{"sequence": "MDLGSFGRIPPQNIEAEQSVLGAILLDKEVLSSVTEIISSQDFYREDHREIFEAIMDLYEKGEPIDLITVAEQLKVRGSLEAVGGLEYLTNLASLVPTTANAKHYAKIVEEKSILRRLIKASSEIINMGYEAAEEVSYVLDKAEKSIFDVLQKRNTQGFALIKDVLIDTFNRLEELYNNKGYITGIPTGFVDLDYKTAGLQNSDLILIAARPAMGKTSFVLNIAQYAAIHAKVPVAIFSLEMSKEQLVNRMLCCEAMVDSQKMRTGKLEDSDWQKVARALGPLSEAPIYIDDTPGLSVAEIRAKCRRLKLEKNLGLVVIDYLQLMQGRGKSESRQQEISEISRSLKILAKEINVPVLTLSQLSRAPELRSDHRPILSDLRESGAIEQDADIVMFLYRDDYYNPDTEKKNIAEVIIAKHRNGSTGTVELAWLGQYTKFANLEKYRQ", "soluble on expression in E. coli": "not soluble"}
{"sequence": "MDLLERLGLGGRRVLILHHDDLGLTHAQNGAYQALGLPTGSVMVPGAWASGVKGEDLGVHLVLTSEWPAPRMRPLTEGESLRDEAGYFPESLEALWRKARAEEVERELKAQIQAAAKLFSPTHLDAHQGAVLRPDLAEVYLRLAEAYRLVPLVPESLEGLGVPPPFLPELERLLYETPFPQVRFLDPYGLPPEERLGFYLDLAHLPPGLYYLVHHSALPTPEGRALPDWPTREADYFALSHPEVRRVLAEFHPLTWRAVREALF", "soluble on expression in E. coli": "soluble"}
{"sequence": "MDLRRFITLKTVVEEGSFLRASQKLCCTQSTVTFHIQQLEQEFSVQLFEKIGRRMCLTREGKKLLPHIYELTRVMDTLREAAKKESDPDGELRVVSGETLLSYRMPQVLQRFRQRAPKVRLSLQSLNCYVIRDALLNDEADVGVFYRVGNDDALNRRELGEQSLVLVASPQIADVDFTEPGRHNACSFIINEPQCVFRQIFESTLRQRRITVENTIELISIESIKRCVAANIGVSYLPRFAVAKELECGELIELPFGEQSQTITAMCAHHAGKAVSPAMHTFIQCVEESFVAG", "soluble on expression in E. coli": "soluble"}
{"sequence": "MDLVDPLAEPCAVCGDKSTGTHYGVISCNGCKGFFRRTVLRDQKFTCRFNKRCVIDKNFRCACRYCRFQKCVQVGMKREAIQFERDPVGSPTSGASLNGTPFKKDRSPGYENGNSNGVGSNGMGQENMRTVPQSSSVIDALMEMEARVNQEMCNRYRRSQIFANGSGGSNGNDTDIQQGSDSGASAFAPPNRPCTTEVDLNEISRTTLLLMVEWAKTINPFMDLSMEDKIILLKNYAPQHLILMPAFRSPDTTRVCLFNNTYMTRDNNTDLNGFAAFKTSNITPRVLDEIVWPMRQLQMREQEFVCLKALAFLHPEAKGLSNSSQIMIRDARNRVLKALYAFILDQMPDDAPTRYGNILLLAPALKALTQLLIENMTLTKFFGLAEVDSLLSEFILDDINDHSTAPVSLQQHLSSPTTLPTNGVSPLNPAGSVGSVSSVSGITPTGMLSATLAAPLAIHPLQSQDSILNSEQNNHML", "soluble on expression in E. coli": "soluble"}
{"sequence": "MDLYAVWGNPIAQSKSPLIQNKLAAQTHQTMEYIAKLGDLDAFEQQLLAFFEEGAKGCNITSPFKERAYQLADEYSQRAKLAEACNTLKKLDDGKLYADNTDGIGLVTDLQRLNWLRPNQHVLILGAGGATKGVLLPLLQAQQNIVLANRTFSKTKELAERFQPYGNIQAVSMDSIPLQTYDLVINATSAGLSGGTASVDAEILKLGSAFYDMQYAKGTDTPFIALCKSLGLTNVSDGFGMLVAQAAHSFHLWRGVMPDFVSVYEQLKKAMLLEHHHHHH", "soluble on expression in E. coli": "soluble"}
{"sequence": "MDMMMDKQEIKREYIEQEGHFETKSRRRELHIEILSEQTKSDIRNSKLVVMN", "soluble on expression in E. coli": "soluble"}
{"sequence": "MDMNFFKHDAFSATTMMKAIENYEFQPGLISSLNLFEEVETSTTVVGIERRDNTLSLIQTSERGAPLVEGDRDGRNLRFFKTTRIAKSDTVKSEEIQNRREFGTEDQLETAMKYIARKQKKLISEIELTWENMQLGAVQGVVLDADGSVIVDWYKEWEIAPPKPIDFKLNNETTNVADHVDQVIMKMIEASKGAFSDRSRIIGLCGNEFFSKLKNHKTIRETYLNTALAQTLNSAGGVATPSAIGSGSFGSFDFAGVTFINYRSIHNYNVSAKAGTKRAIGIKPDECQFLPANAPGVFQKTFAPGESLDFANTVGKPLYTMLIVDNDRNAWVKPEVYSYPLYICTRPEMLFKAVSGGK", "soluble on expression in E. coli": "not soluble"}
{"sequence": "MDNEKLIREARRMEDVQQLKMQIPKPVDKKPRPPPSENNLKLISCEETCMDETLKNSSKPRMIYNKQLGRAESIDFDVPSLSYESSTFKKSNNSSGGALVLDNHYLINNDDGTVKKLPMKVYVKQRLEDGSLDVQLVFFDENSQKVMDISMLVNGKKIRNVQFCGKDGKLVN", "soluble on expression in E. coli": "not soluble"}
{"sequence": "MDNHAEAHWQNGWLQSIRHTPSPNFSPRETGETVSLIVLHNISLPPFEYGTDAVEKLFANRLDPDGHPFFSLIHTLRVSSHFLIKRDGETVQFVSCDNMAYHAGVSSFGGREKCNAFSIGIELEGCDFEPFAEAQYRSLEALLDAICRHYPVTAVTGHQDIAPGRKTDPGHFFDWRRIREKGFLVDRNAV", "soluble on expression in E. coli": "not soluble"}
{"sequence": "MDNVVDRHVFYISDGTAITAEVLGHAVMSQFPVTISSITLPFVENESRARAVKDQIDAIYQQTGVRPLVFYSIVLPEIRAIILQSEGFCQDIVQALVAPLQQEMKLDPTPIAHRTHGLNPGNLNKYDARIAAIDYTLAHDDGISLRNLDQAQVILLGVSRCGKTPTSLYLAMQFGIRAANYPFIADDMDNLTLPTSLKPLQHKLFGLTIDPERLAAIREERRENSRYASLRQCRMEVAEVEALYRKNQIPCLNSTNYSVEEIATKILDIMGLNRRMYLEHHHHHH", "soluble on expression in E. coli": "soluble"}
